Data published in the supplement of paper PMC10567573.

B1: TRIM35 (parent)
chain: DKELLCCSCQADPRHQGHRVQPVK
B2: TRIB1 (parent)
chain: SYVRSRKRLREEEAARLFKQIVSA

Variants of: B1
Assay: protein stability index of a GFP-peptide fusion (GPS, HEK-293T) (PSI 1-6); higher = more stable
Conditions: c terminus: a fixed tail appended
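Note: lentivirally expressed fusions sorted by FACS into six bins by GFP to DsRed ratio, PSI derived from sequencing read proportions per bin multiplied by bin number.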

Protein stability index, by site and new letter:
Q10: E 4.44; W 2.53; P 3.91; F 3.01; C 3.38; T 4.04; G 2.6; N 4.07; K 3.8; V 3.29; A 3.41; R 3.68
H18: G 4.1; P 2.6; Q 3.29; V 2.73; I 3.9; N 3.98; A 3.89; R 3.6; K 4.16; L 3.65; M 3.97; C 2.75
R19: I 3.19; H 3.17; S 3.73; V 3.84; Q 3.67; T 3.01; D 4.79; M 3.71; P 3.73; C 3.63; G 3.63; E 4.33; L 3.52; F 2.66; N 3.73
S8: M 2.87; I 2.64; N 3.62; G 4.14; C 4.16; K 3.78; V 3.75; A 3.31; Q 3.05; H 2.92; W 2.5
C6: K 4.36; N 3.87; M 3.74; V 2.25; T 3.76; D 5.31; S 3.73; L 3.41; A 3.61; H 4.45; R 3.54; E 4.3; I 2.61; Y 3; P 3.64
G17: F 3.49; T 3.78; S 3.66; E 4.17; M 2.88; H 3.95; Y 3.37; N 3.82; I 3.48; C 4.33
D12: L 2.53; E 3.78; R 3.21; Q 3.4; H 2.89; M 2.72; S 3.06; F 2.73; N 3.12; W 3.48; V 3.21; Y 2.75; T 3.01; I 2.45
Q16: I 3.82; F 2.32; D 3.98; V 2.88; C 4.54; S 3.72; G 3.82; L 3.43; P 3.66; A 3.52; W 2.67
Q21: N 4; H 3.61; L 3.15; F 2.79; A 3.79; D 4.05; T 1.96; G 3.28; R 3.71; E 4.26; C 3.92; I 2.65
L4: T 4.13; C 4.27; R 3.7; E 3.41; G 4.47; W 2.68; A 3.86; M 3.9; D 4.47; N 2.58; K 4.07; Y 3.8
V20: I 3.44; R 3.5; A 3.13; D 4.14; L 3.91; H 4.69; T 3.5; C 4.46; W 2.76; P 4.54; K 3.5; Q 4.11; S 3.71; E 4.04; F 3.48; G 4.15
C7: P 4.03; M 3.62; I 3.29; T 4.18; R 3.76; N 4.1; G 4.23; A 4.12; W 3.9; F 3.38; K 3.88; L 3.66; S 4.06; E 4.44
C9: M 4.03; Q 4.65; N 4.6; T 4.28; F 3.38; E 4.87; G 4.1; L 3.09; I 4.14
P13: G 3; N 3.79; T 3.34; A 3.04; K 3.15; Y 2.79; F 2.31; Q 3.88; H 3.64; D 3.44; E 3.44; W 2.31; L 3.76
K24: I 2.73; P 3.46; S 3.52; V 2.92; C 3.18; Y 2.79; N 3.04; G 3.63; R 2.82; Q 3.77; W 2.53; L 2.65; F 3.79; M 3.29; E 3.81
E3: F 2.34; Y 2.46; N 3.68; W 1.93; Q 3.73; H 2.47; I 2.51; S 3.94; K 3.52; M 2.12; G 2.43; D 3.4; T 3.72; P 3.09
K2: W 4.1; H 3.51; L 3.18; V 3.53; G 3.05; Q 3.78; P 3.19; I 2.84; S 3.87; N 3.95; C 4.2; M 3.65
D1: Y 2.11; N 3.77; E 4.13; R 2.71; I 2.38; S 3.31; T 3.71; F 2.79; A 3.15; C 3.49; P 3.49; K 3.46; V 3.06
P22: M 2.73; S 3.08; V 2.68; F 3.44; E 4.53; I 3.04; N 3.05; D 4.11; L 2.84; K 4.08
H15: N 3.33; D 4.23; F 3.62; I 2.99; Q 3.02; L 3.52; T 3.57; C 4.26
R14: F 3.35; A 4.06; T 3.52; D 4.05; W 2.46; C 4.24; E 3.85; Y 3.35; S 3.58; V 2.95
L5: N 2.66; S 4.44; R 3.32; K 3.58; T 4.29; H 3.91; A 3.65; M 3.11; P 4.36; C 3.88; F 3.55; Y 2.93; Q 4.36; D 4.43
V23: Q 4.13; M 3.05; T 3.4; H 3.23; S 3.36; F 3.07; K 4.55; E 3.92; N 3.8; Y 2.96; I 4.25; A 3.88
A11: D 4.08; M 2.76; P 3.87; N 4.24; Q 3.41; W 2.84; L 3.46; C 3.23; F 4.14; V 3.13

Variants of: B2
Assay: as above
Conditions: c terminus: a fixed tail appended

Protein stability index of substitutions, site by site:
S5: L 2.5; T 2.21; G 3.13
A14: V 2.09; R 3.17; Y 2.18
R8: I 2.3; Y 1.99; W 1.95
L17: C 2.52
R10: H 2.63
K7: S 2.53; M 2.38; Y 1.93
K19: R 1.85; P 2.81
R4: F 1.22; Y 2.11; N 2.76; P 1.77
A15: D 2.32; N 2.48
A24: I 2.88; G 3.39; N 3.37
S1: N 2.2; Q 1.58
F18: Q 4.07; C 3.31; E 3.02
Y2: A 2.5; I 1.78
E13: Y 2.14; G 3.21; Q 2.5
V22: L 2.54; A 2.58
S23: T 1.75
R6: Y 2.23; H 2.33
